According to patent US20040091480A1 (Kyowa Kirin, published 2004):
Values belong to the binder of their own block, whether it stands above or below them.

What was measured:
[1] = molecular target: T1, C-terminus-biotin labeled compound 1 (an N-terminus peptide of FGF-8) (human, C-terminus biotin label); assay: BIAcore 2000, biotin FGF-8 peptide on SA chip, antibody in solution, RU compared; dissociation hardly observed
T1 construct: also called FGF-8 peptide
T1 peptide: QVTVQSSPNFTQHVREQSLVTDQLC
Method: In order to examine the activity of various anti-FGF-8 CDR-grafted antibodies obtained in the item 5 of Example 5 to bind to FGF-8 in more detail, activities of various anti-FGF-8 CDR-grafted antibodies to bind to FGF-8 were measured and compared as follows by using BIAcore 2000 (manufactured by BIACORE). The CHO/DG44-derived anti-FGF-8 chimeric antibody KM3034 obtained in the item 3(1) of Example 3 was used as a positive control.
Hereinbelow, HBS-EP (manufactured by Pharmacia) was used as the buffer solution for dilution of samples and during the measurement. First, a sensor tip SA (manufactured by BIACORE) was set, and 5 μl of a C-terminus-biotin labeled compound 1 (an N-terminus peptide of FGF-8; SEQ ID NO:17) prepared to a solution of 0.05 μg/ml was added thereto at a flow rate of […]. Thereafter, the tip surface was washed by adding 5 μl of 10 mmol/l Glycine-HCl buffer (pH 1.5) continuously twice. Immobilized amount of the FGF-8 peptide was 35 RU.
To the FGF-8 peptide immobilized flow cell, 60 μl of each antibody solution was added at a flow rate of 20 μl/minute, and then the dissociation reaction was monitored for 3 minutes. After the dissociation reaction, the tip surface was regenerated by adding 20 μl of 10 mmol/l Glycine-HCl buffer (pH 1.5) continuously twice. This cycle was carried out for antibody solutions of various concentrations (50 to 1.85 μg/ml), and a sensorgram at each concentration was obtained. The sensorgram of each antibody was made into a sensorgram of specific reaction by subtracting a sensorgram obtained using a chimeric antibody KM871 for GD3 [Cancer Immunol. Immunother., 36, 373 (1993)] as a negative control.

[2] = molecular target: T2, BSA-compound 1 (Compound 1, human FGF-8 peptide, conjugated with bovine serum albumin) (human, conjugated to BSA through SMCC); assay: ELISA on BSA-compound 1
T2 peptide: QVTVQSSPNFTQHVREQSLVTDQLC
Method: (§1) The conjugate prepared in the above was dispensed at 50 μl/well into a 96 well plate for ELISA (manufactured by Greiner) at a concentration of 0.5 to 1.0 μg/ml and allowed to stand for adsorption overnight at 4° C. After washing with PBS, 1% BSA-containing PBS (BSA-PBS) was added at 100 μl/well and allowed for blocking of remaining active groups to react at room temperature for 1 hour. After washing each well with 0.05% Tween-containing PBS (Tween-PBS), culture supernatants of transformants or purified antibodies were added at 50 μl/well and allowed to react at room temperature for 1 hour. After the reaction, each well was washed with Tween-PBS and then a peroxidase-labeled goat anti-human IgG (H & L) antibody solution (manufactured by American Qualex) diluted 3,000 to 6,000-folds with BSA-PBS was added as a secondary antibody solution at 50 μl/well and allowed to react at room temperature for 1 hour. After the reaction and subsequent washing with Tween-PBS, an ABTS substrate solution [a solution prepared by dissolving 0.55 g of 2,2′-azinobis(3-ethylbenzothiazoline-6-sulfonic acid) ammonium in 1 L of 0.1 M citrate buffer (pH 4.2) and adding 1 μl/ml hydrogen peroxide just before use] was added at 50 μl/well for color development, and the reaction was stopped by adding 5% SDS solution at 50 μl/well. Thereafter, absorbance at 415 nm (OD415) was measured.
The activity of various anti-FGF-8 CDR-grafted antibodies obtained in the item 4 of Example 4 to bind to FGF-8 was measured by the ELISA described in the item 2(6) of Example 3. The YB2/0-derived anti-FGF-8 chimeric antibody KM3334 obtained in the item 3(2) of Example 3 was used as a positive control.

[3] = molecular target: T2, BSA-compound 1 (Compound 1, human FGF-8 …); assay: ELISA on BSA-compound 1, positive control
Method: as §1, with “After the reaction and subsequent washing with Tween-PBS, an ABTS substrate solution [a solution prepared by dissolving 0.55 g of 2,2′-azinobis(3-ethylbenzothiazoline-6-sulfonic acid) ammonium in 1 L of 0.1 M citrate buffer (pH 4.2) and adding 1 μl/ml hydrogen peroxide just before use] was added at 50 μl/well for color development, and the reaction was stopped by adding 5% SDS solution at 50 μl/well.” left out
The activity of various anti-FGF-8 CDR-grafted antibodies obtained in the item 4 of Example 4 to bind to FGF-8 was measured by the ELISA described in the item 2(6) of Example 3. […]

[4] = molecular target: T3, human FGF-8 partial peptide (Sequence ID NO:1) cross-linked with thyroglobulin (human, cross-linked to thyroglobulin (THY) with glutaraldehyde); assay: enzyme immunoassay, peptide-thyroglobulin conjugate coated on the plate
T3 construct: Coated on the plate as a thyroglobulin conjugate; also called THY-FGF-8 peptide antigen; FGF-8 peptide
T3 peptide: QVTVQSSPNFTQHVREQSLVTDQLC
Method: A conjugate obtained by cross-linking the human FGF-8 partial peptide shown in Sequence ID NO:1 with thyroglobulin in the following manner was used as the antigen for the assay. That is, 1 mg of the peptide was dissolved in 0.1 M ammonium acetate buffer and the solution was adjusted to 1 ml by adding 5 mg of THY which has been dissolved in advance in the same buffer. To this, while stirring, was added dropwise 540 μl of 0.02 M glutaraldehyde, followed by 5 hours of stirring at room temperature to effect the reaction. After the reaction, the reaction solution was dialyzed overnight against PBS and used as the antigen. A conjugate obtained in the same manner by cross-linking the peptide shown in Sequence ID NO:2 with THY was used as a reference antigen. […] After washing with Tween-PBS, a peroxidase-labeled rabbit anti-mouse immunoglobulin (manufactured by DAKO) was distributed in 50 μl portions into wells of the plate to carry out 1 hour of reaction at room temperature, the plate was again washed with Tween-PBS, and then color development was effected using an ABTS substrate [2,2-azinobis(3-ethylbenzothiazole-6-sulfonic acid)ammonium] solution and absorbance at OD₄₁₅ was measured (NJ 2001, Japan Intermed).

[5] = molecular target: T4, FGF-8 (manufactured by R&D) (UniProt P55075-3 23-215, limits assumed); assay: cell-based or functional assay
T4 sequence (looked up): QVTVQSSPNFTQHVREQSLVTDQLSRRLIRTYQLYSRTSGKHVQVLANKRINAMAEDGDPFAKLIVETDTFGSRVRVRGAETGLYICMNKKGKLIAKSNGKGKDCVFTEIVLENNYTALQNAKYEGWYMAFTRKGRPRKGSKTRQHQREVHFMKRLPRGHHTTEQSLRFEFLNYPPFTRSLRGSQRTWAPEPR

[6] = molecular target: T1, C-terminus-biotin labeled compound 1 …; assay: BIAcore 2000, biotin FGF-8 peptide on SA chip, Example 6, RU compared; dissociation hardly observed

B1: anti-FGF-8 CDR-grafted antibody HV0LV3-1/CHO (antibody, V domains shown)
VH: QVQLVQSGAEVKKPGASVKVSCKASGYTFTDYYLNWVRQAPGQGLEWMGEIDPGSDSIYYNENLEGRVTITADTSTSTAYMELSSLRSEDTAVYYCARYGYSRYDVRFVYWGQGTLVTVSS
VL: DVVMTQSPLSLPVTPGEPASISCRSSQSLVHSNGRTYLEWYLQKPGQSPQVLIYKVSNRISGVPDRFSGSGSGTDFTLKISRVEAEDVGVYFCFQGSHVPYTFGQGTKVEIK
notes: HV.0 + LV.3-1, human gamma1/kappa constant regions, made in CHO/DG44 cells; also called KM8036; FERM BP-8083
binding result [1]: binds

B2: anti-FGF-8 CDR-grafted antibody HV0LV6 (YB2/0 cell-derived) (antibody, V domains shown)
VH: QVQLVQSGAEVKKPGASVKVSCKASGYTFTDYYLNWVRQAPGQGLEWMGEIDPGSDSIYYNENLEGRVTITADTSTSTAYMELSSLRSEDTAVYYCARYGYSRYDVRFVYWGQGTLVTVSS
VL: DVVMTQSPLSLPVSLGEPASISCRSSQSLVHSNGRTYLEWYLQKPGQSPKVLIYKVSNRISGVPDRFSGSGSGTDFTLKISRVEAEDVGVYFCFQGSHVPYTFGQGTKVEIK
notes: also called KM8037; FERM BP-8084
binding result [2]: binds

B3: anti-FGF-8 chimeric antibody KM3034 (antibody, V domains shown)
VH: QVQLQQSGAEVARPGASVKLSCKASGYTFTDYYLNWVKQRSGQGLEWIGEIDPGSDSIYYNENLEGRATLTADKSSSTAYMQLNSLTSEDSAVYFCARYGYSRYDVRFVYWGQGTLVTVST
VL: DVLMTQTPLSLPVSLGDQASISCRSSQSLVHSNGRTYLEWYLQKPGQSPKVLIYKVSNRISGVPDRFSGSGSGTDFTLKISRVEAEDLGVYFCFQGSHVPYTFGGGTKLEIK
notes: Human chimeric antibody, human gamma1 CH and kappa CL (vector pKANTEX93), made in CHO/DG44 cells; also called FERM BP-7836
binding result [1]: binds

B7: anti-FGF-8 CDR-grafted antibody HV0LV4-3/CHO (antibody, V domains shown)
VH: QVQLVQSGAEVKKPGASVKVSCKASGYTFTDYYLNWVRQAPGQGLEWMGEIDPGSDSIYYNENLEGRVTITADTSTSTAYMELSSLRSEDTAVYYCARYGYSRYDVRFVYWGQGTLVTVSS
VL: DIVMTQSPLSLPVSLGEPASISCRSSQSLVHSNGRTYLEWYLQKPGQSPQVLIYKVSNRISGVPDRFSGSGSGTDFTLKISRVEAEDVGVYFCFQGSHVPYTFGQGTKVEIK
notes: HV.0 + LV.4-3, human gamma1/kappa constant regions, made in CHO/DG44 cells; also called KM8035
FGF-8 neutralization activity, FGF-8-dependent growth of SC-3 cells [5]: ~0.5 fold of the activity of KM3034
binding result [6]: binds

B9: anti-FGF-8 CDR-grafted antibody HV0LV3-3/CHO (antibody, V domains shown)
VH: QVQLVQSGAEVKKPGASVKVSCKASGYTFTDYYLNWVRQAPGQGLEWMGEIDPGSDSIYYNENLEGRVTITADTSTSTAYMELSSLRSEDTAVYYCARYGYSRYDVRFVYWGQGTLVTVSS
VL: DIVMTQSPLSLPVSLGEPASISCRSSQSLVHSNGRTYLEWYLQKPGQSPQVLIYKVSNRISGVPDRFSGSGSGTDFTLKISRVEAEDVGVYYCFQGSHVPYTFGQGTKVEIK
FGF-8 neutralization activity, FGF-8-dependent growth of SC-3 cells [5]: ~0.5 fold of the activity of KM3034

More lines, now with the values ahead:

binding result [3]: binds
B4: anti-FGF-8 chimeric antibody KM3334 (antibody, V domains shown)
VH: QVQLQQSGAEVARPGASVKLSCKASGYTFTDYYLNWVKQRSGQGLEWIGEIDPGSDSIYYNENLEGRATLTADKSSSTAYMQLNSLTSEDSAVYFCARYGYSRYDVRFVYWGQGTLVTVST
VL: DVLMTQTPLSLPVSLGDQASISCRSSQSLVHSNGRTYLEWYLQKPGQSPKVLIYKVSNRISGVPDRFSGSGSGTDFTLKISRVEAEDLGVYFCFQGSHVPYTFGGGTKLEIK

binding result [4]: binds
B5: anti-FGF-8 monoclonal antibody KM 1334 (antibody, mouse IgG1, V domains shown)
VH: QVQLQQSGAEVARPGASVKLSCKASGYTFTDYYLNWVKQRSGQGLEWIGEIDPGSDSIYYNENLEGRATLTADKSSSTAYMQLNSLTSEDSAVYFCARYGYSRYDVRFVYWGQGTLVTVST
VL: DVLMTQTPLSLPVSLGDQASISCRSSQSLVHSNGRTYLEWYLQKPGQSPKVLIYKVSNRISGVPDRFSGSGSGTDFTLKISRVEAEDLGVYFCFQGSHVPYTFGGGTKLEIK
notes: Mouse IgG1, kappa L chain, purified from ascites; also called anti-FGF-8 mouse antibody KM1334; antibody of hybridoma FERM BP-5451

binding result [1]: binds
B6: anti-FGF-8 CDR-grafted antibody HV0LV0/CHO (antibody, V domains shown)
VH: QVQLVQSGAEVKKPGASVKVSCKASGYTFTDYYLNWVRQAPGQGLEWMGEIDPGSDSIYYNENLEGRVTITADTSTSTAYMELSSLRSEDTAVYYCARYGYSRYDVRFVYWGQGTLVTVSS
VL: DIVMTQSPLSLPVTPGEPASISCRSSQSLVHSNGRTYLEWYLQKPGQSPQLLIYKVSNRISGVPDRFSGSGSGTDFTLKISRVEAEDVGVYYCFQGSHVPYTFGQGTKVEIK

binding result [1]: binds
B8: anti-FGF-8 CDR-grafted antibody HV0LV6/CHO (antibody, V domains shown)
VH: QVQLVQSGAEVKKPGASVKVSCKASGYTFTDYYLNWVRQAPGQGLEWMGEIDPGSDSIYYNENLEGRVTITADTSTSTAYMELSSLRSEDTAVYYCARYGYSRYDVRFVYWGQGTLVTVSS
VL: DVVMTQSPLSLPVSLGEPASISCRSSQSLVHSNGRTYLEWYLQKPGQSPKVLIYKVSNRISGVPDRFSGSGSGTDFTLKISRVEAEDVGVYFCFQGSHVPYTFGQGTKVEIK
notes: also called KM8034

binding result [2]: binds
B10: anti-FGF-8 CDR-grafted antibody HV0LV0 (YB2/0 cell-derived) (antibody, V domains shown)
VH: QVQLVQSGAEVKKPGASVKVSCKASGYTFTDYYLNWVRQAPGQGLEWMGEIDPGSDSIYYNENLEGRVTITADTSTSTAYMELSSLRSEDTAVYYCARYGYSRYDVRFVYWGQGTLVTVSS
VL: DIVMTQSPLSLPVTPGEPASISCRSSQSLVHSNGRTYLEWYLQKPGQSPQLLIYKVSNRISGVPDRFSGSGSGTDFTLKISRVEAEDVGVYYCFQGSHVPYTFGQGTKVEIK

binding result [2]: binds
B11: anti-FGF-8 CDR-grafted antibody HV6LV6 (YB2/0 cell-derived) (antibody, V domains shown)
VH: QVQLVQSGAEVARPGASVKVSCKASGYTFTDYYLNWVRQRSGQGLEWIGEIDPGSDSIYYNENLEGRVTITADTSTSTAYMELSSLRSEDTAVYFCARYGYSRYDVRFVYWGQGTLVTVSS
VL: DVVMTQSPLSLPVSLGEPASISCRSSQSLVHSNGRTYLEWYLQKPGQSPKVLIYKVSNRISGVPDRFSGSGSGTDFTLKISRVEAEDVGVYFCFQGSHVPYTFGQGTKVEIK
